# Measured values taken from article PMC9669022.
# Experiments:
# [1] = biological target: porcine brain tubulin (αβ-tubulin dimer) (porcine) (UniProt Q2XVP4)
# [2] = biological target: porcine brain tubulin (αβ-tubulin dimer) (porcine) (UniProt Q2XVP4); remark: listed apart in the source
# [3] = biological target: porcine brain tubulin (αβ-tubulin dimer) (porcine) (UniProt Q2XVP4); remark: listed apart in the source
substance,measurement,setting,value
Pbkinesin-8B-MD-L12^KIF5B (domain or fragment),"KmMT of the GMPCPP-MT-stimulated ATPase, fold change against WT",[1],20 fold
Pbkinesin-8B-MD-L2^KIF5B (domain or fragment),"Km of the GMPCPP-MT-stimulated ATPase, fold change against WT",[1],2 fold
Pbkinesin-8B-MD (domain or fragment),"Km of the MT-stimulated ATPase (GMPCPP-MTs, NADH-coupled assay)",[2],2.5 µM
same,"Km of the tubulin-stimulated ATPase (unpolymerised tubulin dimer, NADH-coupled assay)",[3],7.6 µM
